{"source": "patent US20110305750", "system": "GST-MT1-MMP cytoplasmic tail fusion protein"}
{"substance": "recombinant Src kinase", "values": [{"measurement": "tyrosine phosphorylation of GST-MT in an in vitro phosphorylation assay (western blot)", "result": "Src-mediated tyrosine phosphorylation of GST-MT"}]}
